Measurements from paper PMC7532178, “Interaction of protocadherin-15 with the scaffold protein whirlin supports its anchoring of hair-bundle lateral links in cochlear hair cells” (Scientific Reports, 2020).
Values belong to the molecule of their own block, whether it stands above or below them. No end group written: not given here. *: point of attachment. Biotin = O=C1N[C@H]2[C@H](CS[C@H]2CCCCC(=O)*)N1; TTDS = trioxatridecan-succinamic acid spacer

Experiments:
[1] = molecular target: PCDH15-CD2 C-terminal peptide (biotin-TTDS-…) (mouse); assay: SPR; harmonin fragments or full-length harmonin-a1 with C-terminal peptides; Fig. S10 and data not shown
[2] = molecular target: PCDH15-CD3 C-terminal peptide (biotin-TTDS-…) (mouse); assay: as above
[3] = molecular target: PCDH15-CD1 C-terminal peptide (biotin-TTDS-…) (mouse); assay: as above
[4] = molecular target: T1, whirlin PDZ1-Hp (aa residues 137-246) (mouse, UniProt Q80VW5-1 137-246); assay: SPR; ProteOn XPR 36; N-terminally biotinylated peptides captured on a Neutravidin NLC sensor chip, whirlin fragments flowed as analytes at 20 μL/min for 2 min; 250 mM NaCl, 50 mM Tris pH 7.5, 0.5 mM TCEP; steady-state fit Req = (Rmax*C)/(Kd+C); mean of three experiments; Figure 4B shows the responses at 10 μM; settings: both partners purified
T1 construct: extra 7 aa at the N-terminus of all recombinant proteins of the study; whirlin, residues 137-246: PDZ1 with its hairpin extension Hp1; also called PDZ1 + Hp1; whirlin PDZ1-Hp1 fragment
T1 sequence: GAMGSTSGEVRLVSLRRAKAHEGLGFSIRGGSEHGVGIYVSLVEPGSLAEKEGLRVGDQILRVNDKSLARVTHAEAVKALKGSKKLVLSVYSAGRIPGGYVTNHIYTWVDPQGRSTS

[5] = molecular target: T2, whirlin-PDZ2 (aa residues 272-368) (mouse, UniProt Q80VW5-1 272-368); assay: as above; settings: both partners purified
T2 construct: extra 7 aa at the N-terminus of all recombinant proteins of the study; whirlin, residues 272-368: PDZ2 domain; source: E. coli BL21 (DE3) codonPlus-RIPL, purified (Glutathione Sepharose 4B, GST removed by TEV proteinase, SEC)
T2 sequence: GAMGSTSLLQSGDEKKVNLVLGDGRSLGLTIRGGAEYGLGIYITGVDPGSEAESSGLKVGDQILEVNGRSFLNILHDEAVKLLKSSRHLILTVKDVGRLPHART

[6] = molecular target: T3, whirlin-NTR-PDZ1-Hp1 (aa residues 2-265) (mouse, UniProt Q80VW5-1 2-265); assay: as above; settings: both partners purified
T3 construct: extra 7 aa at the N-terminus of all recombinant proteins of the study; whirlin (long isoform, L-whirlin), residues 2-265: NTR (with HHD1), PDZ1 and hairpin Hp1; The methods call the 2-265 construct whirlin-NTR-PDZ1; also called NTR-PDZ1-Hp1 whirlin fragment; Nter-PDZ1-Hp1; source: E. coli BL21 (DE3) codonPlus-RIPL, purified (Glutathione Sepharose 4B, GST removed by TEV proteinase, SEC)
T3 sequence: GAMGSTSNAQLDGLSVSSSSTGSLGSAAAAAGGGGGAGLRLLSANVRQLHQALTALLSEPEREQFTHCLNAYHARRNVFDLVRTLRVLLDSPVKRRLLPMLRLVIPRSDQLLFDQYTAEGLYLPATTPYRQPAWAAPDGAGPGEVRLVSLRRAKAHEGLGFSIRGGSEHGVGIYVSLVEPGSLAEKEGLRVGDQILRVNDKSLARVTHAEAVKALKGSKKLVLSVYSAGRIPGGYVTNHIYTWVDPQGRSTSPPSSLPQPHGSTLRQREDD

[7] = molecular target: T4, whirlin-NTR (aa residues 2-147) (mouse, UniProt Q80VW5-1 2-147); assay: as above; settings: both partners purified
T4 construct: extra 7 aa at the N-terminus of all recombinant proteins of the study; also called entire NTR of whirlin (containing the HHD1 domain); source: E. coli BL21 (DE3) codonPlus-RIPL, purified (Glutathione Sepharose 4B, GST removed by TEV proteinase, SEC)
T4 sequence: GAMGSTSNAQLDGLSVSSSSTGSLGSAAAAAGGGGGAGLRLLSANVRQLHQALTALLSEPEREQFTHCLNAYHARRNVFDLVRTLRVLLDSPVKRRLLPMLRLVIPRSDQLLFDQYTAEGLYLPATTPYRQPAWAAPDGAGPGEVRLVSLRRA

[8] = molecular target: T5, whirlin-PDZ1 (aa residues 137-228) (mouse, UniProt Q80VW5-1 137-228); assay: as above; settings: both partners purified
T5 construct: extra 7 aa at the N-terminus of all recombinant proteins of the study; whirlin, residues 137-228: PDZ1 domain; also called whirlin PDZ1 domain alone; source: E. coli BL21 (DE3) codonPlus-RIPL, purified (Glutathione Sepharose 4B, GST removed by TEV proteinase, SEC)
T5 sequence: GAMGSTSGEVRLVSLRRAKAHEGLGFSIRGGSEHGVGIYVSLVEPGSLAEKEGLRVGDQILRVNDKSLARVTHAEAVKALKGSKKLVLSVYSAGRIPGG

[9] = molecular target: T6, whirlin-HHD1 (aa residues 30-121) (mouse, UniProt Q80VW5-1 30-121); assay: as above; settings: both partners purified
T6 construct: extra 7 aa at the N-terminus of all recombinant proteins of the study; whirlin, residues 30-121: harmonin-homology domain 1 (HHD1); also called HHD1 domain alone; source: E. coli BL21 (DE3) codonPlus-RIPL, purified (Glutathione Sepharose 4B, GST removed by TEV proteinase, SEC)
T6 sequence: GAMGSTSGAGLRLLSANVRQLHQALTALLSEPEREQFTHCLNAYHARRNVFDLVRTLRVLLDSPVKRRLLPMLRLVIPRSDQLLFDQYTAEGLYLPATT

[10] = molecular target: T7, whirlin-PDZ3 (aa residues 821-915) (mouse, UniProt Q80VW5-1 821-915); assay: as above; settings: both partners purified
T7 construct: extra 7 aa at the N-terminus of all recombinant proteins of the study; whirlin, residues 821-915: PDZ3 domain, common to L- and S-whirlin; also called whirlin PDZ3 domain
T7 sequence: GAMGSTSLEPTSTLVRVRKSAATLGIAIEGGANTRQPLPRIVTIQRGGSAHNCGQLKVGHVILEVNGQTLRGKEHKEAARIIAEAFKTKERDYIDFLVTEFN

[11] = molecular target: T3, whirlin-NTR-PDZ1-Hp1 (aa residues 2-265); assay: as above; settings: both partners purified; remark: listed apart in the source
[12] = molecular target: T8, CDH23 C-terminal peptide (Mus musculus, UniProt Q99PF4)
T8 chain: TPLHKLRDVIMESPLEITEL

[13] = molecular target: T9, PCDH15-CD1 C-terminal peptide (biotin-TTDS-GIDVQPHSQSTSL) (mouse); assay: SPR; harmonin fragments or full-length harmonin-a1 with C-terminal peptides; Fig. S10 and data not shown; settings: both partners purified
T9 construct: C-terminal 13 aa of protocadherin-15 isoform CD1, including the PBM; source: synthetic peptide (Eurogentec); not shown: biotin, N-terminal, kept
T9 peptide: {Biotin-TTDS}-GIDVQPHSQSTSL

[14] = molecular target: T10, PCDH15-CD3 C-terminal peptide (biotin-TTDS-MGPWNSLHIPMTKL) (mouse); assay: as above; settings: both partners purified
T10 construct: C-terminal 14 aa of protocadherin-15 isoform CD3, including the PBM; source: synthetic peptide (Eurogentec); not shown: biotin, N-terminal, kept
T10 peptide: {Biotin-TTDS}-MGPWNSLHIPMTKL

[15] = molecular target: T11, PCDH15-CD2 C-terminal peptide (biotin-TTDS-GANSEQYNTAL) (mouse); assay: as above; settings: both partners purified
T11 construct: C-terminal 11 aa of protocadherin-15 isoform CD2, including the PBM; source: synthetic peptide (Eurogentec); not shown: biotin, N-terminal, kept
T11 peptide: {Biotin-TTDS}-GANSEQYNTAL

B1: CDH23 C-terminal peptide (biotin-TTDS-VIMESPLEITEL) (peptide)
peptide: {Biotin-TTDS}-VIMESPLEITEL
notes: C-terminal residues of cadherin-23, including the PBM; source: synthetic peptide (Eurogentec); not shown: biotin, N-terminal, kept
Kd [4]: 64 µM
Kd [5]: > 1000 µM
Kd [6]: 11.3 µM
Kd [7]: > 1000 µM
Kd [8]: 141 µM
Kd [9]: > 1000 µM
Kd [10]: 4.3 µM
Kd [11]: ~20 µM

B4: full-length harmonin-a1 (natural protein)
chain: MDRKVAREFRHKVDFLIENDAEKDYLYDVLRMYHQTMDVAVLVGDLKLVINEPNRLPLFDAIRPLIPLKHQVEYDQLTPRRSRKLKEVRLDRLHPEGLGLSVRGGLEFGCGLFISHLIKGGQADSVGLQVGDEIVRINGYSISSCTHEEVINLIRTKKTVSIKVRHIGLIPVKSSPEESLKWQYVDQFVSESGGVRGGLGSPGNRTTKEKKVFISLVGSRGLGCSISSGPIQKPGIFVSHVKPGSLSAEVGLETGDQIVEVNGIDFTNLDHKEAVNVLKSSRSLTISIVAGAGRELFMTDRERLEEARQRELQRQELLMQKRLAMESNKILQEQQEMERQRRKEIAQKAAEENERYRKEMEQISEEEEKFKKQWEEDWGSKEQLILPKTITAEVHPVPLRKPKSFGWFYRYDGKFPTIRKKAKEKKKAKYDSLQDLRKNKKELEFEQKLYKEKEEMLEKEKQLKINRLAQEVSETEREDLEESEKTQYWVERLCQTRLEQISSAENEIPEMTTGPPPPPPSVSPLAPPLRRFAGGIHLHTTDLDDIPLDMFYYPPKTPSALPVMPHPPSVNSPSKVPAPPVLPSSGHVSSSSSPWVQRTPPPIPIPPPPSIPTQDLTPTRPLPSALEEALGNHPFRTGDPGHPADDWEANTHSGKPSSSPTTERSFPPAPKTFCPSPQPPRGPGVSTISKPVMVHQEHNFVYRPAVKSEVLPQEMLKRMVVYQTAFRQDFRKYEEGFDPYSMFSPEQIAGKDVRLLRIKKEGSLDLALEGGVDSPVGKVVVSAVYEGGAAERHGGVVKGDEIMAINGKIVTDYTLAEAEAALQKAWNQGGDWIDLVVAVCPPKEYDDELSSLPSSAAESPQLARKQLEAYEPVCRHGFFLQLEPTNLLLKSRERNQTDPSWRPASSAPSP
Kd [13]: > 200 µM
Kd [14]: > 200 µM
Kd [15]: > 200 µM

The remaining lines, values ahead:

Kd [1]: > 200 µM
Kd [2]: > 200 µM
Kd [3]: > 200 µM
Molecule: PDZ domains of harmonin in tandem association

Kd [12]: ~4 µM
B2: whirlin PDZ3 (protein)
chain: TSTLVRVRKSAATLGIAIEGGANTRQPLPRIVTIQRGGSAHNCGQLKVGHVILEVNGQTLRGKEHKEAARIIAEAFKTKERDYIDFLVTE

Kd [13]: > 200 µM
Kd [14]: > 200 µM
Kd [15]: > 200 µM
B3: harmonin-PDZ3 (aa residues 738-849) (domain or fragment)
chain: DPYSMFSPEQIAGKDVRLLRIKKEGSLDLALEGGVDSPVGKVVVSAVYEGGAAERHGGVVKGDEIMAINGKIVTDYTLAEAEAALQKAWNQGGDWIDLVVAVCPPKEYDDEL
